Measurements as given in paper PMC12677461.

Biological target: Gαo, alpha subunit of the heterotrimeric G protein Go (native, mouse brain) (mouse (endogenous in BALB/c mouse brain)) (UniProt P18872)
Assay: co-IP; mouse brain lysate (2 mg/ml in IP buffer: 50 mM HEPES pH 7.4, 100 mM NaCl, 1 mM EDTA, 3 mM EGTA, 10 mM MgCl2, 1% Triton X-100) with 100 µM GDP, 4 °C, 2 h; Gαo precipitated with anti-Gαo sc-13532 cross-linked to protein A/G agarose; read by protein stain and western blot

UniProt P18872, sequence (P18872 whole entry, one chain of several): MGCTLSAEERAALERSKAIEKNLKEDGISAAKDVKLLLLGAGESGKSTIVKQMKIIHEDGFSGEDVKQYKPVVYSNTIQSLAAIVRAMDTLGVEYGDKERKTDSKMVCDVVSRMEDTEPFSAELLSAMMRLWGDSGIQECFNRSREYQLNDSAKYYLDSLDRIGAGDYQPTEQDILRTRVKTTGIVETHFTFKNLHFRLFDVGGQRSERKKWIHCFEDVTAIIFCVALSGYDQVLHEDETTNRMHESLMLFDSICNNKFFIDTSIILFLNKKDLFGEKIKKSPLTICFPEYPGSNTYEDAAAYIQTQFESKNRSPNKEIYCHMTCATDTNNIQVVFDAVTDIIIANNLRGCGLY

Substance: Gβγ (G protein β and γ subunits, native, mouse brain) (from UniProt P62874 1-340; P63213 1-71) (complex)
- stoichiometry N: 1
